To fix the notation:
B1: C881 (antibody, V domains shown)
VH: EVQLVESGGGLIQPGGSLRLSCAVSGVAVSTNYMSWVRQAPGQGLEWVSTIYSGDTTYYSDSVKGRFTISRDNSKNTFYLQMNSLRVPDTAVYYCARLGGVFNGFNGSFDYWGQGTLVTVS
VL: QSALTQPASVSGSPGQSITISCIGTSSDFENYNLVSWYQQHPGKAPKVMIYEDTKRPSGVSNRFSGSKSANTASLTISGLQAEDEAEYYCCSYAGASTWVFGGGTRVTVV
notes: source: recombinant, purified
B2: C840 (antibody, V domains shown)
VH: QVQLVESGGGVVQPGRSLRLSCEASGFTFTAYAMHWLRQAPGKGLEWVAVILNDGSNKLYADSVKGRFTVSRDNSKNMLYLQVNSLRVDDTAVYYCARDGSVDTLMVTWFDYWGQGTLVTVSS
VL: DIQMTQSPSSLSASVGDRVTITCRASQSVNNYLNWYQQKPGQAPKLLIYAASSLQSGVPLRFSGSGSGTDFALTITSLHTEDFATYYCQQSYNTPPWTFGPGTKVEIK
notes: source: recombinant, purified
B3: C517 (antibody, V domains shown)
VH: EVQLVESGGGLVQPGGSLRLSCAASEFIVSRNYMSWVRQAPGKGLEWVSLIYSGGSTYYADSVKGRFTISRDNSKNTLYLQMNSLRAEDTAMYYCARDIAGRLDYWGQGTLVTVSS
VL: DIQMTQSPSSLSASVGDRVTITCQASQDISKYLNWYQQKPGKAPKLLIYDASNLETGVPSRFSGSGSGTDFTFTISSLQPEDFATYYCQHYDSLSRLTFGGGTKVEIK
notes: source: recombinant, purified
B4: C1002 (antibody, V domains shown)
VH: EVQLVESGGGLVQPGGSLRLSCAASEFIVSSNYMTWVRQAPGKGLEWVSIMYPGGSTFYADSVKGRFTISRDNSKNTLYLQINRLRAEDTAVYYCARDIAGRLDYWGQGTLVTVSS
VL: DIQMTQSPSSLSASVGDRVTITCQASQDINNYLNWYQQKPGKAPKLLIYDASNLETGVPSRFSGSGSGTDFSFTISSLQPEDIATYYCQQYDNLSRLTFGGGTKVEIK
notes: source: recombinant, purified
B5: C1003 (antibody, V domains shown)
VH: QVQLVESGGGVVQPGRSLRLSCAASGFAFSSYGMNWVRQAPGKGLEWVTTVSSDGNVNYYIDSVKGRFTISRDNSKNTLYLQMNSLRGDDTAVYYCAKGPRFGWSYRGGSGFDIWGQGTMVTVSS
VL: DIQMTQSPSSLSASVGDRVTITCQASQDISNYLNWYQQKPGKAPKLLIYDASNLETGVPSRFSGSGSGTDFTFTITSLQPEDIATYYCQQYDNLPITFGQGTRLEIK
notes: source: recombinant, purified
B6: C871 (antibody, V domains shown)
VH: EVQLVESGGGLIQTGGSLKLSCAASGFIVTNNYMSWVRQAPGKGLEWVSVIYSGGTTYYADSVKGRFTISRDISKNTLYLQMNSLKAEDTAVYYCAREGDVEGISDSWSGYSRDRYYFDHWGQGTLVTVSS
VL: QSALTQPASVSGSPGQSITISCTGTSSDVGGYNYVSWYQQHPGKAPKLMIYDVSNRPPTISNRFSGSKSGNTASLIISGLQPEDEADYYCSSFTSNNTRVFGTGTKVTVL
notes: source: recombinant, purified
B7: C108 (antibody, V domains shown)
VH: QVQLQESGPGLVKPSGTLSLTCAVSGGSISSTNWWSWVRQPPGKGLEWIGEIYHTGSTNYNPSLKSRVTISVDKSKNQFSLKLSSVTAADTAVYYCVRDGGRPGDAFDIWGQGTMVTVSS
VL: QSALTQPASVSGSPGQSITISCTGTSSDVGGYNYVSWYQQHPGKAPKLMIYDVSNRPSGVSNRFSGSKSGNTASLTISGLQAEDEADYYCNSYTSSSTRVFGTGTKVTVL
notes: source: recombinant, purified
B8: C032 (antibody, V domains shown)
VH: EVQLVQSGAEVKKPGESLKISCKGSGYSFTSYWIGWVRQMPGKGLEWMGIIYPGDSDTRYSPSFQGQVTISADKSISTAYLQWSSLKASDTAMYYCARGVAVDWYFDLWGRGTLVTVSS
VL: QSVLTQPPSVSGAPGQRVTISCTGSSSNIGAGYDVHWYQQLPGTAPKLLIYGNSNRPSGVPDRFSGSKSGTSASLAITGLQAEDEADYYCQSYDSSLSALYVFGTGTKVTVL
notes: source: recombinant, purified
B9: C888 (antibody, V domains shown)
VH: EVQLVESGGGLVQPGGSLRLSCAASGFTVSSNYMSWVRQAPGKGLEWVSVIYSGGSAYYADSVKGRFTISRDNSKNTLYLQMNSLRAEDTAVYYCARDLRDQDGYSYGAFDYWGQGTLVTVSS
VL: QSALTQPASVSGSPGQSITISCTGTSSDVGGYNYVSWYQQHPGKAPKLMIYDVSNRPSGVSNRFSGSKSGNTASLTISGLQAEDEADYYCSSYTSSSSWVFGGGTKLTVL
notes: source: recombinant, purified
B10: C1009 (antibody, V domains shown)
VH: EVQLVESGGGLLQPGGSLRLSCAASGFSVSSNYMTWVRQAPGKGLEWVAAIYSGDSTYYVDSVKGRFIISRDNSKNTVYLHLSSLRAEDTAVYYCARLVGYDFRSGSDGGYFDYWGHGTLVTVSS
VL: QSALTQPASVSGSPGQSITISCTGTSSDIGNYNLVSWYQQHPGKAPKLMIYDVSKRPSGVSNRFSGSKSGNTASLTISGLQAEDETDYYCCSYAGSSTWVFGGGTKLTVL
notes: source: recombinant, purified
B11: C153 (antibody, V domains shown)
VH: EVQLVESGGGLIQPGGSLRLSCAASGFTVSSNYMSWVRQAPGKGLEWVSVIYSGYSTYYVDSVKGRFTISRDNSKNTLYLQMNSLRAEDTAVYYCARVGGAHSGYDGSFDYWGQGTLVTVSS
VL: QSALTQPASVSGSPGQSITISCTGTSSDVGSYNLVSWYQQHPGKAPKLMIYEGSKRPSGVSNRFSGSKSGNTASLTISGLQAEDEADYYCCSYAGSSTWVFGGGTKLTVL
notes: source: recombinant, purified
B12: C1008 (antibody, V domains shown)
VH: EVQLVESGGGLIQPGGSLRLSCAASGFTVSSNYMSWVRQAPGKGLEWVSVIYSGGSTYYADSVKGRFTISRDNSKNTLYLQMNSLRAEDTAVYYCARVVGYDFWSGYDGGYFDYWGQGTLVTVSS
VL: QSALTQPASVSGSPGQSITISCTGTSSDVGSYNLVSWYQQHPGKAPKLMIYEVSKRPSGVSNRFSGSKSGNTASLTISGLQAEDEADYYCCSYAGSSTWVFGGGTKLTVL
notes: source: recombinant, purified
B13: C937 (antibody, V domains shown)
VH: EVQLVESGGGLIQPGGSLRLSCAASELTVSSNYMSWVRQAPGKGLEWVSVIYPGGSTFYADSVKGRFTISRDNSKNTLYLQMNSLRAEDTAVYYCARDLGTGLFDYWGQGTLVTVSS
VL: DIQLTQSPSFLSASVGDRVTITCRASQGISSYLAWYQQKPGKAPKLLIYAASTLQSGVPSRFSGSGSGTEFTLTISSLQPEDFATYFCQLLNSNPPGTFGPGTKVDIK
notes: source: recombinant, purified
B14: C889 (antibody, V domains shown)
VH: EVQLVESGGGLVQPGGSLRLSCAVSGFTVSSNYMTWVRQAPGKGLEWVSLIYSGTSAFYADSVKGRFTISRDNSKNTLYLQMSSLRVNDTAIYYCARDLRKDDGYSYGAFDYWGQGTLVTVSS
VL: QSALTQPASVSGSPGQSITISCSGTSSDVGAHNYVSWYQQYPGKAPKLMIFDVTDRPSGVSNRFSGSKSGNTASLTISGLQAEDEADYYCTSYTTNRSWVFGGGTKVTVL
notes: source: recombinant, purified
B15: C929 (antibody, V domains shown)
VH: EVQLVESGGGLIQPGGSLRLSCAASGFTVSSNYMTWVRQAPGKGLEWVSVIYSGGTTYYADSVKGRFTISRDNSKNTLYLQMNSLRAEDTAVYYCARDLVVWGMDVWGQGTTVTVSS
VL: DIQLTQSPSFLSASVGDRVTITCRASQGISSYLAWYQQKPGKAPKLLIYAASTLQSGVPSRFSGSGSGTEFTLTISSLQPEDFATYYCQLLNSYPYTFGQGTKLEIK
notes: source: recombinant, purified
B16: C930 (antibody, V domains shown)
VH: EVQLVESGGGLFQPGGSLRLACAASGITVSSNYMSWVRQPPGKGLEWVSVIYAGGSTFYADSVKGRLTISRDNSKNTLYLQINSLRAEDTAVYYCARDLVVWGMDVWGQGTTVTVSS
VL: DIQLTQSPSFLSASVGDRVTITCRASQGISSYLAWYQQKPGKAPKLLIYAASTLQSGVPSRFSGSGSGTEFTLTISSLQPEDFATYYCQQLNTYPYTFGQGTKLEIK
notes: source: recombinant, purified
B17: C934 (antibody, V domains shown)
VH: QVQLVQSGAEVKKPGASVKVSCKASGYTFTDYYIHWVRQAPGQGLEWMGWINPNSGGTNYAQKFQGRVTMTRDTSISTAYMDLSRLRSDDTAVYYCARDVIITMGRGVVFRMDVWGQGTTVTVSS
VL: not shown
notes: source: recombinant, purified
B18: C954 (antibody, V domains shown)
VH: QVQLVQSGAEVKKPGSSVKVSCKASGDTFTNYAFSWMRQAPGQGLEWMGRIIPILGIVKYSQKFQDRVRISADKSTSTAYMDLSSLRSEDTAMYYCARDSEFSTSWFSRGYHGMDVWGQGTTVTVSS
VL: DIVMTQSPLSLPVTPGEPASISCRSSQSLLHGDGYNYLDWYLQKPGQSPHLLIYLGSNRTSGVSDRFSGSGSGTDFTLKISRVEAEDVGVYYCMQALQTPPTFGGGTKVEIK
notes: source: recombinant, purified
B19: C952 (antibody, V domains shown)
VH: EVQLVQSGAEVKKPGESLTISCKDSGNSFTIYWIGWVRQMPGKGLEWMGMIYPGDSGTRYSPSFEGQVTISADESINTAYLQWRSLKASDTAMYYCVRGIAVDWYFDLWGRGTLVTVSS
VL: QSVLTQPPSVSGAPGQRVTISCTGSSSNIGAGFDVHWYQQLPGTAPKLLIYGNNNRPSGVPDRFSGSKSATSASLAITGLQAEDEADYYCQSSDSSLSGLYVFGTGTNVIV
notes: source: recombinant, purified
B20: C953 (antibody, V domains shown)
VH: QVQLVQSGAEVKKPGSSVKVSCKASGGTFSSYAISWVRQAPGQGLEWMGRIIPILGIANYAQKFQGRVTITADKSTSTAYMELSSLRSEDTAVYYCARDSEYSSSWYSRGYYGMDVWGQGTTVTVSS
VL: not shown
notes: source: recombinant, purified
B21: C010 (antibody, V domains shown)
VH: EVQLVESGGGVVQPGRSLRLSCAASGFTFSSYAMHWVRQAPAKGLEWVAVILYDGSGKYYADSVKGRFTISRDNSKNTLYLQMNSLRAEDTAVYYCARDGIVDTALVTWFDYWGQGTLVTVSS
VL: not shown
notes: source: recombinant, purified
B22: C951 (antibody, V domains shown)
VH: QVQLQESGPRLVKPSGTLSLTCAVSGGSISTTNWWSWVRQPPGKGLEWIGEIHHSGNTNYNPSLKSRVTISVDRSKNQFSLKLSSVTAADTAVYFCARDGGRPGDPFDIWGQGTMVTVSS
VL: QSALTQPASVSGSPGQSITISCTGTSSDVGGYNYVSWYQQHPGKAPNLMIYDVSDRPSGVSNRFSGSKSGNTASLTISGLQAEDEADYYCNSFTSNSTRVFGTGTKVTV
notes: source: recombinant, purified

For orientation: Kd means the free concentration of one partner at which half of the binding sites on the other are occupied at equilibrium, for simple one-to-one binding.

The assay deals with SARS-CoV-2 receptor binding domain (RBD) (SARS-CoV-2, GenBank MN985325.1 …, UniProt P0DTC2). Kind of assay: BLI. The settings on record: both partners purified.
As for B1, the Kd turned out to be 1.95 nM. As for B2, the figure is 1.87 nM. As for B3, the figure is 28.8 nM; as for B4, 0.00513 nM. The figure for B5 is 11.5 nM; for B6 it is 2.76 nM. On to B7, for which binding was put at a Kd of 21.5 nM. This Kd lies about 7.8-fold higher than the previous one.

Molecule B8 had a Kd of 32.1 nM.

Turning to B9, the affinity, expressed as Kd, was 7240 nM.

B10: binding was put at a Kd of 4.79 nM. Consider B11, for which the Kd was found to be 1380 nM. The figure for B12 is 208 nM; for B13 it is 4.4 nM. As for B14, the figure is 2.46 nM; as for B15, 0.791 nM; as for B16, 0.318 nM.

B17 had a Kd of 10.8 nM. The figure for B18 is 1.47 nM; for B19 it is 0.587 nM; for B20 it is 620 nM. The figure for B21 is 35.1 nM; for B22 it is 3.34 nM.

The values are drawn from paper PMC8277577 (Nature, 2021).
